Experimental data published in patent US11795460B2, “Compositions and methods for TTR gene editing and treating ATTR amyloidosis” (Intellia Therapeutics, Inc., priority 2017, dated 2023).
Strand notation (5' to 3'): a small letter for the sugar, then the base; units joined by * are phosphorothioate-linked, units joined directly phosphodiester-linked; [ ] holds rarer units or linkages, { } end groups; capitals alone tell only the bases. m = 2'-O-methyl; r = 2'-OH (RNA)

B1: G000482: TTR sgRNA modified sequence, Human, SEQ ID No. 89; guide sequence of CR003365 (nucleic acid)
guide: mU*mG*mU*rArGrArArGrGrGrArUrArUrArCrArArArGrGrUrUrUrUrArGrAmGmCmUmAmGmAmAmAmUmAmGmCrArArGrUrUrArArArArUrArArGrGrCrUrArGrUrCrCrGrUrUrArUrCrAmAmCmUmUmGmAmAmAmAmAmGmUmGmGmCmAmCmCmGmAmGmUmCmGmGmUmGmCmU*mU*mU*mU
B2: G000486: TTR sgRNA modified sequence, Human, SEQ ID No. 93; guide sequence of CR003339 (nucleic acid)
guide: mA*mC*mA*rCrArArArUrArCrCrArGrUrCrCrArGrCrArGrUrUrUrUrArGrAmGmCmUmAmGmAmAmAmUmAmGmCrArArGrUrUrArArArArUrArArGrGrCrUrArGrUrCrCrGrUrUrArUrCrAmAmCmUmUmGmAmAmAmAmAmGmUmGmGmCmAmCmCmGmAmGmUmCmGmGmUmGmCmU*mU*mU*mU
B3: G000493: TTR sgRNA modified sequence, Human, SEQ ID No. 100; guide sequence of CR003368 (nucleic acid)
guide: mA*mA*mG*rUrGrCrCrUrUrCrCrArGrUrArArGrArUrUrGrUrUrUrUrArGrAmGmCmUmAmGmAmAmAmUmAmGmCrArArGrUrUrArArArArUrArArGrGrCrUrArGrUrCrCrGrUrUrArUrCrAmAmCmUmUmGmAmAmAmAmAmGmUmGmGmCmAmCmCmGmAmGmUmCmGmGmUmGmCmU*mU*mU*mU
B4: G000490: TTR sgRNA modified sequence, Human, SEQ ID No. 97; guide sequence of CR003366 (nucleic acid)
guide: mA*mA*mA*rUrArGrArCrArCrCrArArArUrCrUrUrArCrGrUrUrUrUrArGrAmGmCmUmAmGmAmAmAmUmAmGmCrArArGrUrUrArArArArUrArArGrGrCrUrArGrUrCrCrGrUrUrArUrCrAmAmCmUmUmGmAmAmAmAmAmGmUmGmGmCmAmCmCmGmAmGmUmCmGmGmUmGmCmU*mU*mU*mU
B5: G000500: TTR sgRNA modified sequence, Human, SEQ ID No. 107; guide sequence of CR003337 (nucleic acid)
guide: mC*mC*mA*rGrUrCrCrArGrCrArArGrGrCrArGrArGrGrGrUrUrUrUrArGrAmGmCmUmAmGmAmAmAmUmAmGmCrArArGrUrUrArArArArUrArArGrGrCrUrArGrUrCrCrGrUrUrArUrCrAmAmCmUmUmGmAmAmAmAmAmGmUmGmGmCmAmCmCmGmAmGmUmCmGmGmUmGmCmU*mU*mU*mU
B6: G000483: TTR sgRNA modified sequence, Human, SEQ ID No. 90; guide sequence of CR005298 (nucleic acid)
guide: mU*mC*mC*rArCrUrCrArUrUrCrUrUrGrGrCrArGrGrArGrUrUrUrUrArGrAmGmCmUmAmGmAmAmAmUmAmGmCrArArGrUrUrArArArArUrArArGrGrCrUrArGrUrCrCrGrUrUrArUrCrAmAmCmUmUmGmAmAmAmAmAmGmUmGmGmCmAmCmCmGmAmGmUmCmGmGmUmGmCmU*mU*mU*mU
B7: G000481: TTR sgRNA modified sequence, Human, SEQ ID No. 88; guide sequence of CR003345 (nucleic acid)
guide: mU*mC*mU*rArGrArArCrUrUrUrGrArCrCrArUrCrArGrGrUrUrUrUrArGrAmGmCmUmAmGmAmAmAmUmAmGmCrArArGrUrUrArArArArUrArArGrGrCrUrArGrUrCrCrGrUrUrArUrCrAmAmCmUmUmGmAmAmAmAmAmGmUmGmGmCmAmCmCmGmAmGmUmCmGmGmUmGmCmU*mU*mU*mU
B8: G000484: TTR sgRNA modified sequence, Human, SEQ ID No. 91; guide sequence of CR003367 (nucleic acid)
guide: mA*mG*mA*rCrArCrCrArArArUrCrUrUrArCrUrGrGrArGrUrUrUrUrArGrAmGmCmUmAmGmAmAmAmUmAmGmCrArArGrUrUrArArArArUrArArGrGrCrUrArGrUrCrCrGrUrUrArUrCrAmAmCmUmUmGmAmAmAmAmAmGmUmGmGmCmAmCmCmGmAmGmUmCmGmGmUmGmCmU*mU*mU*mU

Tests used:
TTR mRNA = TTR mRNA knockdown in primary human hepatocytes by quantitative PCR (Tables 34, 35); assay type: cell-based; settings: TTR mRNA in PHH, 96 hours after treatment, vs untreated control
Protocol: In one experiment, PHH were cultured and treated with LNPs comprising Cas9 mRNA (SEQ ID NO:1) and a gRNA of interest (See FIG. 29, Table 34), as described in Example 4. The LNPs were prepared using the cross-flow procedure described above and purified and concentrated using PD-10 columns and Amicon centrifugal filter units, respectively. The LNPs were formulated with an N:P ratio of 6.0 and contained Lipid A, Cholesterol, DSPC, and PEG2k-DMG in a 50:38:9:2 molar ratio, respectively. The LNPs comprised a gRNA:mRNA ratio of 1:2, and the cells were treated at a dose of 300 ng (with respect to the amount of mRNA cargo delivered).
(§1) Ninety-six (96) hours following LNP treatment (with biological triplicates for each condition), mRNA was purified from PHH cells using the Dynabeads mRNA DIRECT Kit (ThermoFisher Scientific) according to the manufacturer's protocol. Reverse Transcription (RT) was performed with Maxima reverse transcriptase (ThermoFisher Scientific) and a poly-dT primer. The resulting cDNA was purified with Ampure XP Beads (Agencourt). For Quantitative PCR, 2% of the purified cDNA was amplified with Taqman Fast Advanced Mastermix and 3 Taqman probe sets, TTR (Assay ID: Hs00174914_m1), GAPDH (Assay ID: Hs02786624_g1), and PPIB (Assay ID: Hs00168719_m1). The assays were run on the QuantStudio 7 Flex Real Time PCR System according to the manufacturer's instructions (Life Technologies). Relative expression of TTR mRNA was calculated by normalizing to the endogenous controls (GAPDH and PPIB) individually, and then averaged.
In a separate experiment, TTR mRNA knockdown was evaluated following treatment with LNPs comprising G000480, G000486, and G000502. The LNPs were formulated and PHH were cultured and treated with the LNPs, each as described in the experiment above in this Example with the exception that the cells were treated at a dose of 100 ng (with respect to the amount of mRNA cargo delivered).
as §1, with “(single treatment” for “(with biological triplicates”, “the High Capacity cDNA Reverse Transcription Kit” for “Maxima reverse transcriptase”, “according to the manufacturer's instructions.” for “and a poly-dT primer. The resulting cDNA was purified with Ampure XP Beads (Agencourt).”, “the” for “the purified”

TTR = TTR editing in primary human hepatocytes transfected with Spy Cas9 protein and sgRNAs (Table 12); assay type: cell-based; settings: primary human hepatocytes transfected with Spy Cas9 protein (RNP) and sgRNAs
Protocol: Primary liver hepatocytes. Primary human liver hepatocytes (PHH) and primary cynomolgus liver hepatocytes (PCH) (Gibco) were cultured per the manufacturer's protocol (Invitrogen, protocol 11.28.2012). In brief, the cells were thawed and resuspended in hepatocyte thawing medium with supplements (Gibco, Cat. CM7000) followed by centrifugation at 100 g for 10 minutes for human and 80 g for 4 minutes for cyno. The supernatant was discarded and the pelleted cells resuspended in hepatocyte plating medium plus supplement pack (Invitrogen, Cat. A1217601 and CM3000). Cells were counted and plated on Bio-coat collagen I coated 96-well plates (ThermoFisher, Cat. 877272) at a density of 33,000 cells/well for human or 60,000 cells/well for cyno (or 65,000 cells/well when assaying effects on TTR protein, described further below). Plated cells were allowed to settle and adhere for 6 or 24 hours in a tissue culture incubator at 37° C. and 5% CO2 atmosphere. After incubation cells were checked for monolayer formation and media was replaced with hepatocyte culture medium with serum-free supplement pack (Invitrogen, Cat. A1217601 and CM4000).
[…] formation was performed prior to electroporation or transfection of Spy Cas9 protein loaded with guide RNAs (RNPs) onto cells. For dual guide (dgRNAs), individual crRNA and trRNA was pre-annealed by mixing equivalent amounts of reagent and incubating at 95° C. for 2 min and cooling to room temperature. Single guide (sgRNAs) were boiled at 95° C. for 2 min and cooling to room temperature. The boiled dgRNA or sgRNA was incubated with Spy Cas9 protein in Optimem for 10 minutes at room temperature to form a ribonucleoprotein (RNP) complex.
For RNP lipoplex transfections, cells were transfected with Lipofectamine RNAiMAX (ThermoFisher, Cat. 13778150) per the manufacturer's protocol. Cells were transfected with an RNP containing Spy Cas9 (10 nM), individual guide (10 nM), tracer RNA (10 nM), Lipofectamine RNAiMAX (1.0 μL/well) and OptiMem. RNP formation was performed as described above.
Transfected cells were harvested post-transfection at 24, 48, or 72 hours. The genomic DNA was extracted from each well of a 96-well plate using 50 μL/well BuccalAmp DNA Extraction solution (Epicentre, Cat. QE09050) per manufacturer's protocol. All DNA samples were subjected to PCR and subsequent NGS analyses, as described herein.
To quantitatively determine the efficiency of editing at the target location in the genome, sequencing was utilized to identify the presence of insertions and deletions introduced by gene editing.
Primers were designed around the target site within the gene of interest (e.g. TTR), and the genomic area of interest was amplified.
Additional PCR was performed per the manufacturer's protocols (Illumina) to add chemistry for sequencing. The amplicons were sequenced on an Illumina MiSeq instrument. The reads were aligned to a reference genome (e.g., the human reference genome (hg38), the cynomologus reference genome (mf5), the rat reference genome (rn6), or the mouse reference genome (mm10)) after eliminating those having low quality scores. The resulting files containing the reads were mapped to the reference genome (BAM files), where reads that overlapped the target region of interest were selected and the number of wild type reads versus the number of reads which contain an insertion, substitution, or deletion was calculated.
The editing percentage (e.g., the “editing efficiency” or “percent editing” or “indel frequency”) is defined as the total number of sequence reads with insertions/deletions (“indels”) or substitutions over the total number of sequence reads, including wild type.
Guides in modified sgRNA format targeting human and/or cyno TTR were delivered to primary human hepatocytes and primary cyno hepatocytes as described in Example 1. […]

[1] = LNP dose 300 ng mRNA cargo, gRNA:mRNA 1:2, biological triplicates

| Molecule | Avg % Knockdown (TTR mRNA; [1]) | Avg % Deletion (TTR) | Avg % Edit (TTR) | Avg % Insert (TTR) | Avg % Knockdown (TTR mRNA; LNP dose 100 ng mRNA cargo, separate experiment) |
| --- | --- | --- | --- | --- | --- |
| B1 | 82.31% | 10.10% | 66.67% | 56.57% |  |
| B2 |  | 59.93% | 69.73% | 9.83% | 97.36% |
| B3 | 87.53% | 2.67% | 41.40% | 38.90% |  |
| B4 | 78.34% | 9.80% | 55.90% | 46.13% |  |
| B5 | 92.90% | 3.83% | 65.53% | 62.00% |  |
| B6 | 68.78% | 28.50% | 47.90% | 19.57% |  |
| B7 | 91.39% | 19.43% | 46.90% | 27.77% |  |
| B8 | 75.22% | 33.83% | 62.97% | 29.23% |  |
